Drawing on paper PMC12663309, “NEK7 couples SDHB to orchestrate respiratory chain electron transport homeostasis that impedes liver fibrosis” (Nature Communications, 2025), this text covers Kd for one molecule.

The target in this assay is T1, human NEK7 recombinant protein (HY-P75935, MCE) (human, UniProt Q8TDX7 1-302, RED-NHS dye label (in the MST only)).
T1 construct: NEK7, human, commercially sourced recombinant protein; the vendor's catalogue entry would tell them; source: bought: MCE (HY-P75935), recombinant, purity 94%
T1 sequence (Q8TDX7 whole entry, one chain of several): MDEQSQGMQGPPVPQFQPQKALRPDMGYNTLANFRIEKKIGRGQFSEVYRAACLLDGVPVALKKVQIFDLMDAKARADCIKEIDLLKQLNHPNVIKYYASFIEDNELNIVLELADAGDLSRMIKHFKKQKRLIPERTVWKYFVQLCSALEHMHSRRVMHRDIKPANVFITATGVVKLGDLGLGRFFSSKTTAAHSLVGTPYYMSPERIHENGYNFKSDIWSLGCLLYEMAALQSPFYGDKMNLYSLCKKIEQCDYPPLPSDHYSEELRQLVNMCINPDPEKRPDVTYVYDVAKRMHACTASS
Put plainly: SPR; Biacore T200; NEK7 or NEK7-mut immobilised by amine coupling; SDHB flowed at different concentrations; 1:1 Langmuir binding model. Particulars: both partners purified.

B1: human SDHB recombinant protein (Ag29868, Proteintech) (natural protein, UniProt P21912 29-280, looked up)
chain: AQTAAATAPRIKKFAIYRWDPDKAGDKPHMQTYEVDLNKCGPMVLDALIKIKNEVDSTLTFRRSCREGICGSCAMNINGGNTLACTRRIDTNLNKVSKIYPLPHMYVIKDLVPDLSNFYAQYKSIEPYLKKKDESQEGKQQYLQSIEEREKLDGLYECILCACCSTSCPSYWWNGDKYLGPAVLMQAYRWMIDSRDDFTEERLAKLQDPFSLYRCHTIMNCTRTCPKGLNPGKAIAEIKKMMATYKEKKASV
notes: SDHB, human, commercially sourced recombinant protein; the vendor's catalogue entry would tell them (such antigen proteins may be tagged fragments); source: bought: Proteintech (Ag29868), recombinant, purity 80%
As for B1, the Kd worked out at 349 nM.
